For 1 substance, fold increase of kinesin-1 co-precipitated with GFP-MAP7 against wild-type or ElbowLock results are on record in article PMC13078783.

This experiment has as its target GFP-MAP7 (UniProt O88735). Description: co-IP; HeLa cells transfected with GFP/GFP-MAP7, HA-KLC2 and HA-KIF5C (WT, ElbowLock, DeltaElbow); GFP-TRAP beads; western blot with anti-GFP and anti-HA.

Chain of GFP-MAP7 (O88735 whole entry): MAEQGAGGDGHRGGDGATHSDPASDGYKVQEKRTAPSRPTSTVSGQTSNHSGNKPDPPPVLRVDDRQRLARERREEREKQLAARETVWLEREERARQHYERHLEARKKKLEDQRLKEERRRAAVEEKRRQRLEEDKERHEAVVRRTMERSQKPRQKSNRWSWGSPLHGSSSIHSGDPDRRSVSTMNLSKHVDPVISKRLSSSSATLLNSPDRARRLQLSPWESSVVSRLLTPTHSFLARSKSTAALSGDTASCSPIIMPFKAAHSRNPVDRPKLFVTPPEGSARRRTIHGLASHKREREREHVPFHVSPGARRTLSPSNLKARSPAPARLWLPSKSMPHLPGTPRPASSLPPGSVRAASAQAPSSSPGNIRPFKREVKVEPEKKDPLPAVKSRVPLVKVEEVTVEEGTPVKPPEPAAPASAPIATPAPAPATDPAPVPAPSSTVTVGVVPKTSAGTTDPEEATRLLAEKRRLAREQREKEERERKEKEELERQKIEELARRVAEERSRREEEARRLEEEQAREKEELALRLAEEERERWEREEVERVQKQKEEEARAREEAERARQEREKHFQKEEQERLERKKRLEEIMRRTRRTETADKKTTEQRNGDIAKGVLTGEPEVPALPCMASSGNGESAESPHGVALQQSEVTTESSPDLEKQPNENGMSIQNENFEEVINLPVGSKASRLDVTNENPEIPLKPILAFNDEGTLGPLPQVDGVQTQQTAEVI

Regarding “DeltaElbow kinesin-1 complex (HA-KIF5C DeltaElbow / HA-KLC2) (from UniProt P56536 1-955; O88448 1-599)”, the fold increase of kinesin-1 co-precipitated with GFP-MAP7 against wild-type or ElbowLock came out at 5 fold.
